Positions count from the first letter of the chain named.
How the values were obtained:
human ADAMTS5 [1] = target: T1, human ADAMTS5 (human, UniProt Q9UNA0 262-622, limits assumed); assay: Biacore, mAb from culture supernatant captured on anti-human IgG, ADAMTS5 (R&D 2198-AD) at 64 nM, 1:1 fit
T1 construct: Octet and ELISA used 'recombinant human ADAMTS5'; also called recombinant human ADAMTS5; ADAMTS5 (R&D Systems 2198-AD)
T1 sequence: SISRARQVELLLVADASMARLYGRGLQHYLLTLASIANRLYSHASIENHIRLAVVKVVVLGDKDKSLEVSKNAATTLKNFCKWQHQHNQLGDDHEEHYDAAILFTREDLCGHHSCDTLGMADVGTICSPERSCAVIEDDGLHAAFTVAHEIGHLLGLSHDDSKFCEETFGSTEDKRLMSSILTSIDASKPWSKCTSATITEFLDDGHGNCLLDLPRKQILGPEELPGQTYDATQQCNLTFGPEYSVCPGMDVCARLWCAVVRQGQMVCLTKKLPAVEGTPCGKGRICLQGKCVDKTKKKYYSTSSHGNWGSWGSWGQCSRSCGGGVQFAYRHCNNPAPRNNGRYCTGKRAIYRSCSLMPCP
Method: Anti-human IgG (Biacore™, BR-1008-39) was immobilized on a CM5 chip by primary amine coupling. This surface was then used to capture the humanized antibodies, ADAMTS5 (R&D Systems 2198-AD) was then passed over the captured antibody at a single concentration of 64 nM, regeneration was carried out using 100 mM phosphoric acid followed by 3M MgCl₂. The binding curves were double referenced with buffer injection (i.e. 0 nM) and the data was fitted to the T100 analysis software using the 1:1 model. The run was carried out at 25° C., using HBS-EP as the running buffer. All antibodies were captured from tissue culture supernatants unless specified.

human ADAMTS5 [2] = target: T1, human ADAMTS5; assay: Octet QK, antigen down, incl avidity
human ADAMTS5 [3] = target: T1, human ADAMTS5; assay: Biacore, mAb down, no avidity

B1: BPC1656 (antibody, human IgG1, kappa, V domains shown)
VH: EVQLLESGGGLVQPGGSLRLSCAASGFTFSDAWMDWVRQAPGKGLEWVSEIRHKANDHAIFYDESVKGRFTISRDNSKNTLYLQMNSLRAEDTAVYYCTSPFAYWGQGTLVTVSS
VL: DIQMTQSPSSLSASVGDRVTITCKASQSVGTTIVWYQQKPGKAPKLLIYSASNRHTGVPSRFSGSGSGTDFTLTISSLQPEDFATYYCQQYTSYPFTFGQGTKLEIKR
notes: Humanized, human gamma 1 / kappa; also called 12F4 H1L0
- Kd (human ADAMTS5 [1]): 0.624 nM
- koff (human ADAMTS5 [1]): 0.000395 s⁻¹
- kon (human ADAMTS5 [1]): 633000 M⁻¹ s⁻¹

B2: BPC1658 (antibody, human IgG1, kappa, V domains shown)
VH: B1 VH with S49A, L81V
VL: B1 VL
notes: Humanized, human gamma 1 / kappa; also called 12F4 H3L0
- Kd (human ADAMTS5 [1]): 0.312 nM
- koff (human ADAMTS5 [1]): 0.00014 s⁻¹
- kon (human ADAMTS5 [1]): 448000 M⁻¹ s⁻¹

B3: BPC1657 (antibody, human IgG1, kappa, V domains shown)
VH: B1 VH with N76D
VL: B1 VL
notes: Humanized, human gamma 1 / kappa; also called 12F4 H2L0
- Kd (human ADAMTS5 [1]): 0.129 nM
- koff (human ADAMTS5 [1]): 7.54e-05 s⁻¹
- kon (human ADAMTS5 [1]): 585000 M⁻¹ s⁻¹

B4: BPC1644 (antibody, human IgG1, kappa, V domains shown)
VH: EVQLVESGGGLVQPGGSLRLSCAASGFTSSDAWMDWVRQAPGKGLEWVAEIRNKANNHARHYAESVKGRFTISRDNAKNSLYLQMNSLRAEDTAVYYCTRTYYYGSSYGYCDVWGQGTLVTVSS
VL: DIQMTQSPSSLSASVGDRVTITCRTSENIYSYLAWYQQKPGKAPKLLVYNAKTLAEGVPSRFSGSGSGTDFTLTISSLQPEDFATYYCQHHYGTPWTFGQGTKLEIKR
notes: Humanized, human gamma 1 / kappa; also called 7B4 H3L1
- Kd (human ADAMTS5 [1]): 1.05 nM
- koff (human ADAMTS5 [1]): 0.00157 s⁻¹
- kon (human ADAMTS5 [1]): 1.49e+06 M⁻¹ s⁻¹

B5: BPC1652 (antibody, human IgG1, kappa, V domains shown)
VH: B4 VH with N76D
VL: B4 VL with K45Q
notes: Humanized, human gamma 1 / kappa; also called 7B4 H4L2
- Kd (human ADAMTS5 [1]): 1.08 nM
- koff (human ADAMTS5 [1]): 0.00212 s⁻¹
- kon (human ADAMTS5 [1]): 1.96e+06 M⁻¹ s⁻¹

B6: BPC1634 (antibody, human IgG1, kappa, V domains shown)
VH: B4 VH with S29F, T99A
VL: B4 VL with V48I
notes: Humanized, human gamma 1 / kappa; also called 7B4 H0L0; Humanized 7B4.1E11 H0L0
- Kd (human ADAMTS5 [2]): 0.205 nM
- Kd (human ADAMTS5 [3]): 0.869 nM
- Kd (human ADAMTS5 [1]): 0.869 nM
- koff (human ADAMTS5 [1]): 0.000481 s⁻¹
- kon (human ADAMTS5 [1]): 554000 M⁻¹ s⁻¹

B7: BPC1650 (antibody, human IgG1, kappa, V domains shown)
VH: B4 VH with T99A
VL: B4 VL with K45Q
notes: Humanized, human gamma 1 / kappa; also called 7B4 H2L2
- Kd (human ADAMTS5 [1]): 1.09 nM
- koff (human ADAMTS5 [1]): 0.00343 s⁻¹
- kon (human ADAMTS5 [1]): 3.14e+06 M⁻¹ s⁻¹

B8: BPC1642 (antibody, human IgG1, kappa, V domains shown)
VH: B4 VH with S29F
VL: B4 VL
notes: Humanized, human gamma 1 / kappa; also called 7B4 H1L1
- Kd (human ADAMTS5 [1]): 1.36 nM
- koff (human ADAMTS5 [1]): 0.00121 s⁻¹
- kon (human ADAMTS5 [1]): 887000 M⁻¹ s⁻¹

B9: BPC1645 (antibody, human IgG1, kappa, V domains shown)
VH: B4 VH with N76D
VL: B4 VL
notes: Humanized, human gamma 1 / kappa; also called 7B4 H4L1
- Kd (human ADAMTS5 [1]): 1.04 nM
- koff (human ADAMTS5 [1]): 0.00116 s⁻¹
- kon (human ADAMTS5 [1]): 1.12e+06 M⁻¹ s⁻¹

B10: BPC1637 (antibody, human IgG1, kappa, V domains shown)
VH: B4 VH
VL: B4 VL with V48I
notes: Humanized, human gamma 1 / kappa; also called 7B4 H3L0
- Kd (human ADAMTS5 [1]): 0.86 nM
- koff (human ADAMTS5 [1]): 0.000963 s⁻¹
- kon (human ADAMTS5 [1]): 1.12e+06 M⁻¹ s⁻¹

B11: BPC1641 (antibody, human IgG1, kappa, V domains shown)
VH: B4 VH with S29F, T99A
VL: B4 VL
notes: Humanized, human gamma 1 / kappa; also called 7B4 H0L1
- Kd (human ADAMTS5 [1]): 1.32 nM
- koff (human ADAMTS5 [1]): 0.000945 s⁻¹
- kon (human ADAMTS5 [1]): 714000 M⁻¹ s⁻¹

B12: BPC1636 (antibody, human IgG1, kappa, V domains shown)
VH: B4 VH with T99A
VL: B4 VL with V48I
notes: Humanized, human gamma 1 / kappa; also called 7B4 H2L0
- Kd (human ADAMTS5 [1]): 0.836 nM
- koff (human ADAMTS5 [1]): 0.000896 s⁻¹
- kon (human ADAMTS5 [1]): 1.07e+06 M⁻¹ s⁻¹

B13: BPC1638 (antibody, human IgG1, kappa, V domains shown)
VH: B4 VH with N76D
VL: B4 VL with V48I
notes: Humanized, human gamma 1 / kappa; also called 7B4 H4L0
- Kd (human ADAMTS5 [1]): 0.95 nM
- koff (human ADAMTS5 [1]): 0.000831 s⁻¹
- kon (human ADAMTS5 [1]): 875000 M⁻¹ s⁻¹

B14: BPC1654 (antibody, human IgG1, kappa, V domains shown)
VH: B4 VH with N76D, L81V
VL: B4 VL with K45Q
notes: Humanized, human gamma 1 / kappa; also called 7B4 H6L2
- Kd (human ADAMTS5 [1]): 1.09 nM
- koff (human ADAMTS5 [1]): 0.00114 s⁻¹
- kon (human ADAMTS5 [1]): 1.04e+06 M⁻¹ s⁻¹

B15: BPC1646 (antibody, human IgG1, kappa, V domains shown)
VH: B4 VH with L81V
VL: B4 VL
notes: Humanized, human gamma 1 / kappa; also called 7B4 H5L1
- Kd (human ADAMTS5 [1]): 1.03 nM
- koff (human ADAMTS5 [1]): 0.00184 s⁻¹
- kon (human ADAMTS5 [1]): 1.79e+06 M⁻¹ s⁻¹

B16: BPC1649 (antibody, human IgG1, kappa, V domains shown)
VH: B4 VH with S29F
VL: B4 VL with K45Q
notes: Humanized, human gamma 1 / kappa; also called 7B4 H1L2
- Kd (human ADAMTS5 [1]): 1.27 nM
- koff (human ADAMTS5 [1]): 0.0013 s⁻¹
- kon (human ADAMTS5 [1]): 1.02e+06 M⁻¹ s⁻¹

B17: BPC1653 (antibody, human IgG1, kappa, V domains shown)
VH: B4 VH with L81V
VL: B4 VL with K45Q
notes: Humanized, human gamma 1 / kappa; also called 7B4 H5L2
- Kd (human ADAMTS5 [1]): 1.16 nM
- koff (human ADAMTS5 [1]): 0.0026 s⁻¹
- kon (human ADAMTS5 [1]): 2.24e+06 M⁻¹ s⁻¹

B18: BPC1648 (antibody, human IgG1, kappa, V domains shown)
VH: B4 VH with S29F, T99A
VL: B4 VL with K45Q
notes: Humanized, human gamma 1 / kappa; also called 7B4 H0L2
- Kd (human ADAMTS5 [1]): 1.21 nM
- koff (human ADAMTS5 [1]): 0.000951 s⁻¹
- kon (human ADAMTS5 [1]): 788000 M⁻¹ s⁻¹

B19: BPC1643 (antibody, human IgG1, kappa, V domains shown)
VH: B4 VH with T99A
VL: B4 VL
notes: Humanized, human gamma 1 / kappa; also called 7B4 H2L1
- Kd (human ADAMTS5 [1]): 1.05 nM
- koff (human ADAMTS5 [1]): 0.00143 s⁻¹
- kon (human ADAMTS5 [1]): 1.36e+06 M⁻¹ s⁻¹

B20: BPC1651 (antibody, human IgG1, kappa, V domains shown)
VH: B4 VH
VL: B4 VL with K45Q
notes: Humanized, human gamma 1 / kappa; also called 7B4 H3L2
- Kd (human ADAMTS5 [1]): 1.19 nM
- koff (human ADAMTS5 [1]): 0.00315 s⁻¹
- kon (human ADAMTS5 [1]): 2.65e+06 M⁻¹ s⁻¹

B21: BPC1635 (antibody, human IgG1, kappa, V domains shown)
VH: B4 VH with S29F
VL: B4 VL with V48I
notes: Humanized, human gamma 1 / kappa; also called 7B4 H1L0
- Kd (human ADAMTS5 [1]): 1.17 nM
- koff (human ADAMTS5 [1]): 0.000826 s⁻¹
- kon (human ADAMTS5 [1]): 704000 M⁻¹ s⁻¹

B22: BPC1639 (antibody, human IgG1, kappa, V domains shown)
VH: B4 VH with L81V
VL: B4 VL with V48I
notes: Humanized, human gamma 1 / kappa; also called 7B4 H5L0
- Kd (human ADAMTS5 [1]): 0.964 nM
- koff (human ADAMTS5 [1]): 0.000894 s⁻¹
- kon (human ADAMTS5 [1]): 927000 M⁻¹ s⁻¹

B23: BPC1640 (antibody, human IgG1, kappa, V domains shown)
VH: B4 VH with N76D, L81V
VL: B4 VL with V48I
notes: Humanized, human gamma 1 / kappa; also called 7B4 H6L0
- Kd (human ADAMTS5 [1]): 1.08 nM
- koff (human ADAMTS5 [1]): 0.000849 s⁻¹
- kon (human ADAMTS5 [1]): 787000 M⁻¹ s⁻¹

B24: BPC1647 (antibody, human IgG1, kappa, V domains shown)
VH: B4 VH with N76D, L81V
VL: B4 VL
notes: Humanized, human gamma 1 / kappa; also called 7B4 H6L1
- Kd (human ADAMTS5 [1]): 0.978 nM
- koff (human ADAMTS5 [1]): 0.00145 s⁻¹
- kon (human ADAMTS5 [1]): 1.48e+06 M⁻¹ s⁻¹
